From US20140286957A1 (Teva, published 2014)

Molecular target: T1, Human CD1d/β2M (human, UniProt P15813 20-301; P61769 21-119)
T1 construct: also called hCD1d; recombinant human CD1d
Assay: SPR, transfection supernatant

| Binder | Kd | binding result |
| --- | --- | --- |
| 401.11.87 (antibody, name in Kabat numbering, V domains shown) VH: QVQLVGSGGGLVKPGRSLRLSCAASGFTFDDYAMHWVRQAPGKGLEWVATIIWNSAIIGYADSVKGRFIVSRDNAKNSLYLQMNSLRAEDMALYYCAKDMCSSSSCPDGYFDSWGQGTLVTVSS VL: DIQMTQSPSSVSASVGDRVTITCRASQHISSWLAWYQQKPGKAPNLLIYAASSLQSGVSSRFSGSGSGTDFTLTISSLQPEDFATYYCQQANRFPLTFGGGTKLEIKR | 7.13 nM |  |
| 401.11.89 (antibody, name in Kabat numbering, V domains shown) VH: QVQLVGSGGGLVKPGRSLRLSCAASGFTFDDYAMHWVRQAPGKGLEWVATIIWNSAIIGYADSVKGRFIVSRDNAKNSLYLQMNSLRAEDMALYYCAKDMCSSSDCPDGYFDSWGQGTLVTVSS VL: DIQMTQSPSSVSASVGDRVTITCRASQHISSWLAWYQQKPGKAPNLLIYAASSLQSGVSSRFSGSGSGTDFTLTISSLQPEDFATYYCQQANRFPLTFGGGTKLEIKR | 5.3 nM |  |
| 401.11.104 (antibody, name in Kabat numbering, V domains shown) VH: QVQLVGSGGGLVKPGRSLRLSCAASGFTFDDYAMHWVRQAPGKGLEWVATIIWNSAIIGYADSVKGRFIVSRDNAKNSLYLQMNSLRAEDMALYYCAKDMCSSSGCLDGYFDSWGQGTLVTVSS VL: DIQMTQSPSSVSASVGDRVTITCRASQHISSWLAWYQQKPGKAPNLLIYAASSLQSGVSSRFSGSGSGTDFTLTISSLQPEDFATYYCQQANRFPLTFGGGTKLEIKR | 0.487 nM |  |
| 401.11.88 (antibody, name in Kabat numbering, V domains shown) VH: QVQLVGSGGGLVKPGRSLRLSCAASGFTFDDYAMHWVRQAPGKGLEWVATIIWNSAIIGYADSVKGRFIVSRDNAKNSLYLQMNSLRAEDMALYYCAKDMCSSSACPDGYFDSWGQGTLVTVSS VL: DIQMTQSPSSVSASVGDRVTITCRASQHISSWLAWYQQKPGKAPNLLIYAASSLQSGVSSRFSGSGSGTDFTLTISSLQPEDFATYYCQQANRFPLTFGGGTKLEIKR | 1.89 nM |  |
| 401.11.108 (antibody, name in Kabat numbering, V domains shown) VH: QVQLVGSGGGLVKPGRSLRLSCAASGFTFDDYAMHWVRQAPGKGLEWVATIIWNSAIIGYADSVKGRFIVSRDNAKNSLYLQMNSLRAEDMALYYCAKDMCSSSGCRDGYFDSWGQGTLVTVSS VL: DIQMTQSPSSVSASVGDRVTITCRASQHISSWLAWYQQKPGKAPNLLIYAASSLQSGVSSRFSGSGSGTDFTLTISSLQPEDFATYYCQQANRFPLTFGGGTKLEIKR | < 0.01 nM |  |
| 401.11.101 (antibody, name in Kabat numbering, V domains shown) VH: QVQLVGSGGGLVKPGRSLRLSCAASGFTFDDYAMHWVRQAPGKGLEWVATIIWNSAIIGYADSVKGRFIVSRDNAKNSLYLQMNSLRAEDMALYYCAKDMCSSSGCSDGYFDSWGQGTLVTVSS VL: DIQMTQSPSSVSASVGDRVTITCRASQHISSWLAWYQQKPGKAPNLLIYAASSLQSGVSSRFSGSGSGTDFTLTISSLQPEDFATYYCQQANRFPLTFGGGTKLEIKR | < 0.01 nM |  |
| 401.11.90 (antibody, name in Kabat numbering, V domains shown) VH: QVQLVGSGGGLVKPGRSLRLSCAASGFTFDDYAMHWVRQAPGKGLEWVATIIWNSAIIGYADSVKGRFIVSRDNAKNSLYLQMNSLRAEDMALYYCAKDMCSSSKCPDGYFDSWGQGTLVTVSS VL: DIQMTQSPSSVSASVGDRVTITCRASQHISSWLAWYQQKPGKAPNLLIYAASSLQSGVSSRFSGSGSGTDFTLTISSLQPEDFATYYCQQANRFPLTFGGGTKLEIKR | < 0.01 nM |  |
| 401.11.107 (antibody, name in Kabat numbering, V domains shown) VH: QVQLVGSGGGLVKPGRSLRLSCAASGFTFDDYAMHWVRQAPGKGLEWVATIIWNSAIIGYADSVKGRFIVSRDNAKNSLYLQMNSLRAEDMALYYCAKDMCSSSGCYDGYFDSWGQGTLVTVSS VL: DIQMTQSPSSVSASVGDRVTITCRASQHISSWLAWYQQKPGKAPNLLIYAASSLQSGVSSRFSGSGSGTDFTLTISSLQPEDFATYYCQQANRFPLTFGGGTKLEIKR | 0.996 nM |  |
| 401.11.103 (antibody, name in Kabat numbering, V domains shown) VH: QVQLVGSGGGLVKPGRSLRLSCAASGFTFDDYAMHWVRQAPGKGLEWVATIIWNSAIIGYADSVKGRFIVSRDNAKNSLYLQMNSLRAEDMALYYCAKDMCSSSGCGDGYFDSWGQGTLVTVSS VL: DIQMTQSPSSVSASVGDRVTITCRASQHISSWLAWYQQKPGKAPNLLIYAASSLQSGVSSRFSGSGSGTDFTLTISSLQPEDFATYYCQQANRFPLTFGGGTKLEIKR | < 0.01 nM |  |
| 401.11.102 (antibody, name in Kabat numbering, V domains shown) VH: QVQLVGSGGGLVKPGRSLRLSCAASGFTFDDYAMHWVRQAPGKGLEWVATIIWNSAIIGYADSVKGRFIVSRDNAKNSLYLQMNSLRAEDMALYYCAKDMCSSSGCTDGYFDSWGQGTLVTVSS VL: DIQMTQSPSSVSASVGDRVTITCRASQHISSWLAWYQQKPGKAPNLLIYAASSLQSGVSSRFSGSGSGTDFTLTISSLQPEDFATYYCQQANRFPLTFGGGTKLEIKR | 0.457 nM |  |
| 401.11.110 (antibody, name in Kabat numbering, V domains shown) VH: QVQLVGSGGGLVKPGRSLRLSCAASGFTFDDYAMHWVRQAPGKGLEWVATIIWNSAIIGYADSVKGRFIVSRDNAKNSLYLQMNSLRAEDMALYYCAKDMCSSSGCPKGYFDSWGQGTLVTVSS VL: DIQMTQSPSSVSASVGDRVTITCRASQHISSWLAWYQQKPGKAPNLLIYAASSLQSGVSSRFSGSGSGTDFTLTISSLQPEDFATYYCQQANRFPLTFGGGTKLEIKR | 0.247 nM |  |

More lines, now with the values ahead:

| Kd | binding result | Binder |
| --- | --- | --- |
| 0.667 nM |  | 401.11.115 (antibody, name in Kabat numbering, V domains shown) VH: QVQLVGSGGGLVKPGRSLRLSCAASGFTFDDYAMHWVRQAPGKGLEWVATIIWNSAIIGYADSVKGRFIVSRDNAKNSLYLQMNSLRAEDMALYYCAKDMCSSSGCPYGYFDSWGQGTLVTVSS VL: DIQMTQSPSSVSASVGDRVTITCRASQHISSWLAWYQQKPGKAPNLLIYAASSLQSGVSSRFSGSGSGTDFTLTISSLQPEDFATYYCQQANRFPLTFGGGTKLEIKR |
| < 0.01 nM |  | 401.11.118 (antibody, name in Kabat numbering, V domains shown) VH: QVQLVGSGGGLVKPGRSLRLSCAASGFTFDDYAMHWVRQAPGKGLEWVATIIWNSAIIGYADSVKGRFIVSRDNAKNSLYLQMNSLRAEDMALYYCAKDMCSSSGCPDSYFDSWGQGTLVTVSS VL: DIQMTQSPSSVSASVGDRVTITCRASQHISSWLAWYQQKPGKAPNLLIYAASSLQSGVSSRFSGSGSGTDFTLTISSLQPEDFATYYCQQANRFPLTFGGGTKLEIKR |
| 2.43 nM |  | 401.11.112 (antibody, name in Kabat numbering, V domains shown) VH: QVQLVGSGGGLVKPGRSLRLSCAASGFTFDDYAMHWVRQAPGKGLEWVATIIWNSAIIGYADSVKGRFIVSRDNAKNSLYLQMNSLRAEDMALYYCAKDMCSSSGCPSGYFDSWGQGTLVTVSS VL: DIQMTQSPSSVSASVGDRVTITCRASQHISSWLAWYQQKPGKAPNLLIYAASSLQSGVSSRFSGSGSGTDFTLTISSLQPEDFATYYCQQANRFPLTFGGGTKLEIKR |
| 0.877 nM |  | 401.11.119 (antibody, name in Kabat numbering, V domains shown) VH: QVQLVGSGGGLVKPGRSLRLSCAASGFTFDDYAMHWVRQAPGKGLEWVATIIWNSAIIGYADSVKGRFIVSRDNAKNSLYLQMNSLRAEDMALYYCAKDMCSSSGCPDAYFDSWGQGTLVTVSS VL: DIQMTQSPSSVSASVGDRVTITCRASQHISSWLAWYQQKPGKAPNLLIYAASSLQSGVSSRFSGSGSGTDFTLTISSLQPEDFATYYCQQANRFPLTFGGGTKLEIKR |
| 0.13 nM |  | 401.11.122 (antibody, name in Kabat numbering, V domains shown) VH: QVQLVGSGGGLVKPGRSLRLSCAASGFTFDDYAMHWVRQAPGKGLEWVATIIWNSAIIGYADSVKGRFIVSRDNAKNSLYLQMNSLRAEDMALYYCAKDMCSSSGCPDKYFDSWGQGTLVTVSS VL: DIQMTQSPSSVSASVGDRVTITCRASQHISSWLAWYQQKPGKAPNLLIYAASSLQSGVSSRFSGSGSGTDFTLTISSLQPEDFATYYCQQANRFPLTFGGGTKLEIKR |
| 1.33 nM |  | 401.11.117 (antibody, name in Kabat numbering, V domains shown) VH: QVQLVGSGGGLVKPGRSLRLSCAASGFTFDDYAMHWVRQAPGKGLEWVATIIWNSAIIGYADSVKGRFIVSRDNAKNSLYLQMNSLRAEDMALYYCAKDMCSSSGCPQGYFDSWGQGTLVTVSS VL: DIQMTQSPSSVSASVGDRVTITCRASQHISSWLAWYQQKPGKAPNLLIYAASSLQSGVSSRFSGSGSGTDFTLTISSLQPEDFATYYCQQANRFPLTFGGGTKLEIKR |
| 0.239 nM |  | 401.11.123 (antibody, name in Kabat numbering, V domains shown) VH: QVQLVGSGGGLVKPGRSLRLSCAASGFTFDDYAMHWVRQAPGKGLEWVATIIWNSAIIGYADSVKGRFIVSRDNAKNSLYLQMNSLRAEDMALYYCAKDMCSSSGCPDRYFDSWGQGTLVTVSS VL: DIQMTQSPSSVSASVGDRVTITCRASQHISSWLAWYQQKPGKAPNLLIYAASSLQSGVSSRFSGSGSGTDFTLTISSLQPEDFATYYCQQANRFPLTFGGGTKLEIKR |
| 0.679 nM |  | 401.11.113 (antibody, name in Kabat numbering, V domains shown) VH: QVQLVGSGGGLVKPGRSLRLSCAASGFTFDDYAMHWVRQAPGKGLEWVATIIWNSAIIGYADSVKGRFIVSRDNAKNSLYLQMNSLRAEDMALYYCAKDMCSSSGCPGGYFDSWGQGTLVTVSS VL: DIQMTQSPSSVSASVGDRVTITCRASQHISSWLAWYQQKPGKAPNLLIYAASSLQSGVSSRFSGSGSGTDFTLTISSLQPEDFATYYCQQANRFPLTFGGGTKLEIKR |
| 37.7 nM |  | 401.11.116 (antibody, name in Kabat numbering, V domains shown) VH: QVQLVGSGGGLVKPGRSLRLSCAASGFTFDDYAMHWVRQAPGKGLEWVATIIWNSAIIGYADSVKGRFIVSRDNAKNSLYLQMNSLRAEDMALYYCAKDMCSSSGCPFGYFDSWGQGTLVTVSS VL: DIQMTQSPSSVSASVGDRVTITCRASQHISSWLAWYQQKPGKAPNLLIYAASSLQSGVSSRFSGSGSGTDFTLTISSLQPEDFATYYCQQANRFPLTFGGGTKLEIKR |
|  | no binding | 401.11.109 (antibody, name in Kabat numbering, V domains shown) VH: QVQLVGSGGGLVKPGRSLRLSCAASGFTFDDYAMHWVRQAPGKGLEWVATIIWNSAIIGYADSVKGRFIVSRDNAKNSLYLQMNSLRAEDMALYYCAKDMCSSSGCWDGYFDSWGQGTLVTVSS VL: DIQMTQSPSSVSASVGDRVTITCRASQHISSWLAWYQQKPGKAPNLLIYAASSLQSGVSSRFSGSGSGTDFTLTISSLQPEDFATYYCQQANRFPLTFGGGTKLEIKR |
| < 0.01 nM |  | 401.11.111 (antibody, name in Kabat numbering, V domains shown) VH: QVQLVGSGGGLVKPGRSLRLSCAASGFTFDDYAMHWVRQAPGKGLEWVATIIWNSAIIGYADSVKGRFIVSRDNAKNSLYLQMNSLRAEDMALYYCAKDMCSSSGCPRGYFDSWGQGTLVTVSS VL: DIQMTQSPSSVSASVGDRVTITCRASQHISSWLAWYQQKPGKAPNLLIYAASSLQSGVSSRFSGSGSGTDFTLTISSLQPEDFATYYCQQANRFPLTFGGGTKLEIKR |
